From patent US20220340685A1 (Novartis, published 2022)
Where a chain is given by its changes, count along the chain named. “And” between values parts separate entries of the source, which are not always exact repeats. Identical values can stand only once.

B1: anti-human ENTPD2 FAb22 (Fab, V domains shown)
VH: EVKLEQSGPGLVKPSQSLSLTCSVTGYSITSGYYWNWIRQFPGNKLEWMSYISYDGDNNYNPSLKNRISITRDTSKNQFFLKLSSVTTEDTATYYCAGGYYRYGLSYYYVMDYWGQGTSVTVSA
VL: DIKMTQSPASLAVSLGQRATISCKASQSVDYDGNSYMNWYQQKPGQPPKLLIYAASNLESGIPARFSGSGSGTDFTLNIHPVEEEDAATYYCQQSNEDPPTFGGGTKLELKR
notes: Fab with human CH1 and human kappa constant regions; CDRs of mAb16; also called anti-hENTPD2 FAb22
B2: anti-human ENTPD2 FAb23 (Fab, V domains shown)
VH: EVQLQQFGAELVKPGASVKISCKASGYTFTDYNMDWVKQSHGKSLEWIGDINPKYDISTYNQQFKGKATLTVDKSSSTAYMELRSLTSEDTAVYYCARRGFFLYYGINYYYFDVWGAGTTVTVSS
VL: QIVLTQSPAIMSASLGEEITLTCSASSSVSYIHWYQQKSGTSPTLLIYSTSNLASGVPSRFSGSGSGTFYSLTISSVEAEDAADYYCHQWSSYPWTFGGGTKLEIKR
modifications: residue 1 of the light chain observed and modeled as pyroglutamate in the crystal structure
notes: Fab with human CH1 and human kappa constant regions; variable regions of mAb17; also called anti-hENTPD2 FAb23; anti-human ENTPD2 MAB17 Fab
B3: anti-mouse ENTPD2 mAb13 (antibody, mouse IgG2a, kappa, V domains shown)
VH: QVQLVQSGAELKQPGQSVKISCKASGYTFTHYGMNWVKQAPGQGLKWMGWINTDTGNPTYADDFKGRFVFSLDTSVSTAYLQISNLKNEDTATYYCVRYGTLYSGYGFFFDSWGQGTLVTVSS
VL: DIMMTQSPSSLSVSAGEKATITCKSSQSLFNSNTNKNYLNWYLQKPGQSPKLLFYYASTRHTGVPDRFIGSGSGTDFTLTITSVQDEDLADYYCQQWYSYPWTFGPGTKLEIKR
B4: anti-mouse ENTPD2 mAb14 (antibody, mouse IgG2a, kappa, V domains shown)
VH: B3 VH with T30W
VL: B3 VL
B5: anti-mouse ENTPD2 mAb15 (antibody, mouse IgG2a, kappa, V domains shown)
VH: B3 VH with T30H
VL: B3 VL
B6: anti-human ENTPD2 mAb1 (antibody, human IgG1, kappa)
heavy: not shown
light: DIQLTQSPSSLSASVGDRVTITCSASSSVSYIHWFQQKPGKAPKLLIYSTSNLASGVPSRFSGSGSGTFFTLTISSLQPEDFATYFCHQWSSYPWTFGQGTKVEIKRTVAAPSVFIFPPSDEQLKSGTASVVCLLNNFYPREAKVQWKVDNALQSGNSQESVTEQDSKDSTYSLSSTLTLSKADYEKHKVYACEVTHQGLSSPVTKSFNRGEC

Columns and labels:
[1] = target: T1, recombinant human ENTPD2 (residues 29-462, Y350A mutant) used in crystallographic studies (human, UniProt Q9Y5L3 29-462, N-linked glycosylation observed at Asn129, Asn294, Asn378 and Asn443); assay: X-ray co-crystal structure
T1 construct: also called human ENTPD2 Y350A; hENTPD2 Y350A
T1 sequence: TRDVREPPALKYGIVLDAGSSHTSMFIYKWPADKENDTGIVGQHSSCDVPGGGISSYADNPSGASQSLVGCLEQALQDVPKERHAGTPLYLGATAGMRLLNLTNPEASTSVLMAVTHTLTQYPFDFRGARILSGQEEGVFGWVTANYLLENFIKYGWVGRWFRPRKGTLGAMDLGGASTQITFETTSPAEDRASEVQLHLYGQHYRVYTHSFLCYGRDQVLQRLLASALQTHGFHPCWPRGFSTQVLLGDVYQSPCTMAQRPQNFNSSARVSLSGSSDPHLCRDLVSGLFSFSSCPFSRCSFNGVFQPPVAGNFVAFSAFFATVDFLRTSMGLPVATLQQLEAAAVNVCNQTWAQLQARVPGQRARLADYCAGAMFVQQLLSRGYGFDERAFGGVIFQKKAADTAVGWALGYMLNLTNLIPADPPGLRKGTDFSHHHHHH

mouse ENTPD2 on cells = target: T2, mouse ENTPD2 on cells (mouse, UniProt O55026 1-495); assay: cell-based or functional assay
T2 sequence: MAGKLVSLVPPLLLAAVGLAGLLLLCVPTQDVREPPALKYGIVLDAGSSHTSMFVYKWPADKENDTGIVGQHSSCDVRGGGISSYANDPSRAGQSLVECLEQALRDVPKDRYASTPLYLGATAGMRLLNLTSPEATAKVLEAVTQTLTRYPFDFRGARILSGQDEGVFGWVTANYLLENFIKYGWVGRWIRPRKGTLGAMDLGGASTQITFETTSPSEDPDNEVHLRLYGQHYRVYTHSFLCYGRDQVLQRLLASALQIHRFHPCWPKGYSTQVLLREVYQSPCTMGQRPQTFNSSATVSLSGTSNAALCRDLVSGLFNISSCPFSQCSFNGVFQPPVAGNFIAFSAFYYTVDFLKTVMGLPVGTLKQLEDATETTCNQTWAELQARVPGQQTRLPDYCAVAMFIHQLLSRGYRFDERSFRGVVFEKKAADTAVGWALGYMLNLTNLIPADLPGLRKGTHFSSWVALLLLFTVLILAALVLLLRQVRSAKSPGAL

[2] = target: human FcγRIIIa, V158 (high affinity variant) (human, UniProt P08637 17-254); assay: cell-based or functional assay
Chain of human FcγRIIIa, V158 (high affinity variant) (P08637 other isoform, or with tags, fused parts or gaps mutant limits assumed): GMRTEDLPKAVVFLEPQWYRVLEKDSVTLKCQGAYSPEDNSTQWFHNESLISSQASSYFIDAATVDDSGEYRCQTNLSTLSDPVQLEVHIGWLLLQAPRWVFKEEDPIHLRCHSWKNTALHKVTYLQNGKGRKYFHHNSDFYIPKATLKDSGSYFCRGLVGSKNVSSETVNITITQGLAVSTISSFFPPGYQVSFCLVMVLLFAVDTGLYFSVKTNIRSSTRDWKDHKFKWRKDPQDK

| Binder | binding result [1] | ENTPD2 Functional Assay IC50 (mouse ENTPD2 NIH/3T3 cell-based assay) (mouse ENTPD2 on cells) [nM] | also measured |
| --- | --- | --- | --- |
| B1 | binds |  |  |
| B2 | binds |  |  |
| B3 |  | 2.8 |  |
| B4 |  | 4.6 |  |
| B5 |  | 5.9 |  |
| B6 |  |  | FcγRIIIa signaling, Jurkat NFAT-luciferase reporter cells with RKO target cells, EC50 [2]: 17.3 nM and 2.55 µg/mL |
